According to article PMC9279676, “ERK2 MAP kinase regulates SUFU binding by multisite phosphorylation of GLI1” (Life Science Alliance, 2022):
Substitutions are numbered along the chain they refer to.

Key:
[1] = target: T1, full-length GLI1^G122A,H123A, 35S-radiolabeled (human, UniProt P08151-1 1-1106, G122A | H123A, [35S]-methionine label); experiment: pull-down; purified GST-SUFU, 1.25-80 nM, captured on glutathione-Sepharose beads; ∼1 pmol 35S-GLI1 (1-232 or full length) in 200 μl; 15 min at 30°C, then 1 h at room temperature; Binding Buffer + 1 mg/ml BSA; bound GLI1 quantified by SDS-PAGE and Phosphorimager; Kd from binding isotherms; conditions: one partner purified
T1 construct: human GLI1, full length (1,106 residues); also called G122A, H123A double substitution; source: in vitro transcription/translation, partially purified by ammonium sulfate precipitation
T1 sequence (looked up): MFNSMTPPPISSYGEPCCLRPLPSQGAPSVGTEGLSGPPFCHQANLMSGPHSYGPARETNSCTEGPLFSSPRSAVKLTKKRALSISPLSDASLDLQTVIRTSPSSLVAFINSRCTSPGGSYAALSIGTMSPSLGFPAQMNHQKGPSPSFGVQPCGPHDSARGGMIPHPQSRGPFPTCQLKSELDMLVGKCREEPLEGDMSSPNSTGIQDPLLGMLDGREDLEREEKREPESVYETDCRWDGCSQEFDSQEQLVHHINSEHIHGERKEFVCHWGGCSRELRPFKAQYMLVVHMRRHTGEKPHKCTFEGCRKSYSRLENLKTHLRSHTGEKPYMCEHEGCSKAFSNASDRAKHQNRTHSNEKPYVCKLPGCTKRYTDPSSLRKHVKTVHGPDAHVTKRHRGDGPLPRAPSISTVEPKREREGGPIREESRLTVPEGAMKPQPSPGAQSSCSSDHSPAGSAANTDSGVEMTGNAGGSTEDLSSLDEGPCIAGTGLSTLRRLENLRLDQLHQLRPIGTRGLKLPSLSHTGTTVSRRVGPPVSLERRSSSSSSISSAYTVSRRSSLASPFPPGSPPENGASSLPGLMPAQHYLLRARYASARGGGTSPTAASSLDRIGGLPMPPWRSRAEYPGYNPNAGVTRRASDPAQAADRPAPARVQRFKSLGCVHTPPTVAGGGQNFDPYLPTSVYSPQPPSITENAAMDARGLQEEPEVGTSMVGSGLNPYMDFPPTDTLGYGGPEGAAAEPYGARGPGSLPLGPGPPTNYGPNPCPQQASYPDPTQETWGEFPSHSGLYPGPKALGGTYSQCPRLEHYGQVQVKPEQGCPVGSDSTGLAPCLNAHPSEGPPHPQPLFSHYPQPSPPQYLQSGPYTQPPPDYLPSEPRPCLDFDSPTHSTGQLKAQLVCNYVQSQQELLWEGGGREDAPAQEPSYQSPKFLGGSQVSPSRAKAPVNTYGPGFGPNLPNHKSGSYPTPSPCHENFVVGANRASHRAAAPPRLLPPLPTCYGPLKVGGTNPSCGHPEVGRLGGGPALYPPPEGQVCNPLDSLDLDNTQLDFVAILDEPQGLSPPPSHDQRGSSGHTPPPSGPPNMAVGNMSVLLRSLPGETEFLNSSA

[2] = target: T2, full-length GLI1, wild type, 35S-radiolabeled (human, UniProt P08151-1 1-1106, [35S]-methionine label); experiment: as above; conditions: one partner purified
T2 construct: human GLI1, full length (1,106 residues); the plasmid used for in vitro translation of full-length GLI1 is not described; also called full-length GLI1 protein; FL-GLI1; source: in vitro transcription/translation, partially purified by ammonium sulfate precipitation
T2 sequence (looked up): T1 sequence (looked up) with A122G, A123H

Kd [1]: 120 ± 35 nM
Kd [2]: 14 ± 4 nM
B1: GST-SUFU (fusion of GST to full-length human SUFU) (natural protein, UniProt Q9UMX1-1 1-484, looked up)
chain: MAELRPSGAPGPTAPPAPGPTAPPAFASLFPPGLHAIYGECRRLYPDQPNPLQVTAIVKYWLGGPDPLDYVSMYRNVGSPSANIPEHWHYISFGLSDLYGDNRVHEFTGTDGPSGFGFELTFRLKRETGESAPPTWPAELMQGLARYVFQSENTFCSGDHVSWHSPLDNSESRIQHMLLTEDPQMQPVQTPFGVVTFLQIVGVCTEELHSAQQWNGQGILELLRTVPIAGGPWLITDMRRGETIFEIDPHLQERVDKGIETDGSNLSGVSAKCAWDDLSRPPEDDEDSRSICIGTQPRRLSGKDTEQIRETLRRGLEINSKPVLPPINPQRQNGLAHDRAPSRKDSLESDSSTAIIPHELIRTRQLESVHLKFNQESGALIPLCLRGRLLHGRHFTYKSITGDMAITFVSTGVEGAFATEEHPYAAHGPWLQILLTEEFVEKMLEDLEDLTSPEEFKLPKEYSWPEKKLKVSILPDVVFDSPLH
notes: human SUFU, full length (residues 1-484), BamHI-SUFU-SalI cassette in pGEX-LB; pGEX-LB carries a Gly-Gly-Gly-Gly-Gly-Ser-Gly stretch between GST and the fused protein; also called full-length GST-SUFU; source: Escherichia coli, purified (glutathione-Sepharose); not shown: GST, N-terminal, kept
